According to US20260015399A1 (Boehringer Ingelheim, published 2026):
*1 amine or outer side, *2 acyl side, *3 side chain or, on linkers, in order; H or OH if unused. Side-chain parts run from the residue outwards. The star is where a group is joined. C18 diacid = O=C(O)CCCCCCCCCCCCCCCCC(=O)*; γGlu = O=C(O)[C@H](CCC(=O)[*:2])N[*:1]; Isovaleryl = CC(C)CC(=O)*; Ahx = NCCCCCC(=O)O

T1: human NPY2 receptor (human, UniProt P49146 1-381)
T1 construct: whole, on cells; also called hNPY2-R; hNPY2R
T1 sequence (looked up): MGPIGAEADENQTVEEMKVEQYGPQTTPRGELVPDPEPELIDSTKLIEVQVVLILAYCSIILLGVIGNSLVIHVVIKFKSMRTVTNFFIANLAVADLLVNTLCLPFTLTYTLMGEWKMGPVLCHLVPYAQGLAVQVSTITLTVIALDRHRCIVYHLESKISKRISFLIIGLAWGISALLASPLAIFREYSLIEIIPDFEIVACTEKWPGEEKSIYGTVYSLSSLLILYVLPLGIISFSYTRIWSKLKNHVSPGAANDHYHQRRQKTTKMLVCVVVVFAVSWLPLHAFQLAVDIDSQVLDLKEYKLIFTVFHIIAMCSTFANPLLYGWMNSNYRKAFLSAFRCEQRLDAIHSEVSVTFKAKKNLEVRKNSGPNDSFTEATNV

B1: Compound 187 (peptide)
peptide: Isovaleryl-APEK([Ahx-γGlu-C18 diacid])PEEDATPEEPQRYYVSLRHYYNWLTRQRY-NH2
SMILES: CC(C)CC(=O)N[C@@H](C)C(=O)N1CCC[C@H]1C(=O)N[C@@H](CCC(=O)O)C(=O)N[C@@H](CCCCNC(=O)CCCCCNC(=O)CC[C@H](NC(=O)CCCCCCCCCCCCCCCCC(=O)O)C(=O)O)C(=O)N1CCC[C@H]1C(=O)N[C@@H](CCC(=O)O)C(=O)N[C@@H](CCC(=O)O)C(=O)N[C@@H](CC(=O)O)C(=O)N[C@@H](C)C(=O)N[C@H](C(=O)N1CCC[C@H]1C(=O)N[C@@H](CCC(=O)O)C(=O)N[C@@H](CCC(=O)O)C(=O)N1CCC[C@H]1C(=O)N[C@@H](CCC(N)=O)C(=O)N[C@@H](CCCNC(=N)N)C(=O)N[C@@H](Cc1ccc(O)cc1)C(=O)N[C@@H](Cc1ccc(O)cc1)C(=O)N[C@H](C(=O)N[C@@H](CO)C(=O)N[C@@H](CC(C)C)C(=O)N[C@@H](CCCNC(=N)N)C(=O)N[C@@H](Cc1c[nH]cn1)C(=O)N[C@@H](Cc1ccc(O)cc1)C(=O)N[C@@H](Cc1ccc(O)cc1)C(=O)N[C@@H](CC(N)=O)C(=O)N[C@@H](Cc1c[nH]c2ccccc12)C(=O)N[C@@H](CC(C)C)C(=O)N[C@H](C(=O)N[C@@H](CCCNC(=N)N)C(=O)N[C@@H](CCC(N)=O)C(=O)N[C@@H](CCCNC(=N)N)C(=O)N[C@@H](Cc1ccc(O)cc1)C(N)=O)[C@@H](C)O)C(C)C)[C@@H](C)O
B2: Compound 188 (peptide)
peptide: Isovaleryl-APEK([Ahx-γGlu-C18 diacid])PEEDATPEELQRYYVSLRHYYNWLQRQRY-NH2
SMILES: CC(C)CC(=O)N[C@@H](C)C(=O)N1CCC[C@H]1C(=O)N[C@@H](CCC(=O)O)C(=O)N[C@@H](CCCCNC(=O)CCCCCNC(=O)CC[C@H](NC(=O)CCCCCCCCCCCCCCCCC(=O)O)C(=O)O)C(=O)N1CCC[C@H]1C(=O)N[C@@H](CCC(=O)O)C(=O)N[C@@H](CCC(=O)O)C(=O)N[C@@H](CC(=O)O)C(=O)N[C@@H](C)C(=O)N[C@H](C(=O)N1CCC[C@H]1C(=O)N[C@@H](CCC(=O)O)C(=O)N[C@@H](CCC(=O)O)C(=O)N[C@@H](CC(C)C)C(=O)N[C@@H](CCC(N)=O)C(=O)N[C@@H](CCCNC(=N)N)C(=O)N[C@@H](Cc1ccc(O)cc1)C(=O)N[C@@H](Cc1ccc(O)cc1)C(=O)N[C@H](C(=O)N[C@@H](CO)C(=O)N[C@@H](CC(C)C)C(=O)N[C@@H](CCCNC(=N)N)C(=O)N[C@@H](Cc1c[nH]cn1)C(=O)N[C@@H](Cc1ccc(O)cc1)C(=O)N[C@@H](Cc1ccc(O)cc1)C(=O)N[C@@H](CC(N)=O)C(=O)N[C@@H](Cc1c[nH]c2ccccc12)C(=O)N[C@@H](CC(C)C)C(=O)N[C@@H](CCC(N)=O)C(=O)N[C@@H](CCCNC(=N)N)C(=O)N[C@@H](CCC(N)=O)C(=O)N[C@@H](CCCNC(=N)N)C(=O)N[C@@H](Cc1ccc(O)cc1)C(N)=O)C(C)C)[C@@H](C)O
B3: Compound 190 (peptide)
peptide: Isovaleryl-APAK([Ahx-γGlu-C18 diacid])PEEDATPEELQRYYISLRHYYNWLTRQRY-NH2
SMILES: CC[C@H](C)[C@H](NC(=O)[C@H](Cc1ccc(O)cc1)NC(=O)[C@H](Cc1ccc(O)cc1)NC(=O)[C@H](CCCNC(=N)N)NC(=O)[C@H](CCC(N)=O)NC(=O)[C@H](CC(C)C)NC(=O)[C@H](CCC(=O)O)NC(=O)[C@H](CCC(=O)O)NC(=O)[C@@H]1CCCN1C(=O)[C@@H](NC(=O)[C@H](C)NC(=O)[C@H](CC(=O)O)NC(=O)[C@H](CCC(=O)O)NC(=O)[C@H](CCC(=O)O)NC(=O)[C@@H]1CCCN1C(=O)[C@H](CCCCNC(=O)CCCCCNC(=O)CC[C@H](NC(=O)CCCCCCCCCCCCCCCCC(=O)O)C(=O)O)NC(=O)[C@H](C)NC(=O)[C@@H]1CCCN1C(=O)[C@H](C)NC(=O)CC(C)C)[C@@H](C)O)C(=O)N[C@@H](CO)C(=O)N[C@@H](CC(C)C)C(=O)N[C@@H](CCCNC(=N)N)C(=O)N[C@@H](Cc1c[nH]cn1)C(=O)N[C@@H](Cc1ccc(O)cc1)C(=O)N[C@@H](Cc1ccc(O)cc1)C(=O)N[C@@H](CC(N)=O)C(=O)N[C@@H](Cc1c[nH]c2ccccc12)C(=O)N[C@@H](CC(C)C)C(=O)N[C@H](C(=O)N[C@@H](CCCNC(=N)N)C(=O)N[C@@H](CCC(N)=O)C(=O)N[C@@H](CCCNC(=N)N)C(=O)N[C@@H](Cc1ccc(O)cc1)C(N)=O)[C@@H](C)O
B4: Compound 191 (peptide)
peptide: Isovaleryl-APEK([Ahx-γGlu-C18 diacid])PEEDATPEEIQRYYESLRHYYNWLTRQRY-NH2
SMILES: CC[C@H](C)[C@H](NC(=O)[C@H](CCC(=O)O)NC(=O)[C@H](CCC(=O)O)NC(=O)[C@@H]1CCCN1C(=O)[C@@H](NC(=O)[C@H](C)NC(=O)[C@H](CC(=O)O)NC(=O)[C@H](CCC(=O)O)NC(=O)[C@H](CCC(=O)O)NC(=O)[C@@H]1CCCN1C(=O)[C@H](CCCCNC(=O)CCCCCNC(=O)CC[C@H](NC(=O)CCCCCCCCCCCCCCCCC(=O)O)C(=O)O)NC(=O)[C@H](CCC(=O)O)NC(=O)[C@@H]1CCCN1C(=O)[C@H](C)NC(=O)CC(C)C)[C@@H](C)O)C(=O)N[C@@H](CCC(N)=O)C(=O)N[C@@H](CCCNC(=N)N)C(=O)N[C@@H](Cc1ccc(O)cc1)C(=O)N[C@@H](Cc1ccc(O)cc1)C(=O)N[C@@H](CCC(=O)O)C(=O)N[C@@H](CO)C(=O)N[C@@H](CC(C)C)C(=O)N[C@@H](CCCNC(=N)N)C(=O)N[C@@H](Cc1c[nH]cn1)C(=O)N[C@@H](Cc1ccc(O)cc1)C(=O)N[C@@H](Cc1ccc(O)cc1)C(=O)N[C@@H](CC(N)=O)C(=O)N[C@@H](Cc1c[nH]c2ccccc12)C(=O)N[C@@H](CC(C)C)C(=O)N[C@H](C(=O)N[C@@H](CCCNC(=N)N)C(=O)N[C@@H](CCC(N)=O)C(=O)N[C@@H](CCCNC(=N)N)C(=O)N[C@@H](Cc1ccc(O)cc1)C(N)=O)[C@@H](C)O
B5: Compound 192 (peptide)
peptide: Isovaleryl-APEK([Ahx-γGlu-C18 diacid])PEAPASPEELQRYYVSLRHYYNWLTRQRY-NH2
SMILES: CC(C)CC(=O)N[C@@H](C)C(=O)N1CCC[C@H]1C(=O)N[C@@H](CCC(=O)O)C(=O)N[C@@H](CCCCNC(=O)CCCCCNC(=O)CC[C@H](NC(=O)CCCCCCCCCCCCCCCCC(=O)O)C(=O)O)C(=O)N1CCC[C@H]1C(=O)N[C@@H](CCC(=O)O)C(=O)N[C@@H](C)C(=O)N1CCC[C@H]1C(=O)N[C@@H](C)C(=O)N[C@@H](CO)C(=O)N1CCC[C@H]1C(=O)N[C@@H](CCC(=O)O)C(=O)N[C@@H](CCC(=O)O)C(=O)N[C@@H](CC(C)C)C(=O)N[C@@H](CCC(N)=O)C(=O)N[C@@H](CCCNC(=N)N)C(=O)N[C@@H](Cc1ccc(O)cc1)C(=O)N[C@@H](Cc1ccc(O)cc1)C(=O)N[C@H](C(=O)N[C@@H](CO)C(=O)N[C@@H](CC(C)C)C(=O)N[C@@H](CCCNC(=N)N)C(=O)N[C@@H](Cc1c[nH]cn1)C(=O)N[C@@H](Cc1ccc(O)cc1)C(=O)N[C@@H](Cc1ccc(O)cc1)C(=O)N[C@@H](CC(N)=O)C(=O)N[C@@H](Cc1c[nH]c2ccccc12)C(=O)N[C@@H](CC(C)C)C(=O)N[C@H](C(=O)N[C@@H](CCCNC(=N)N)C(=O)N[C@@H](CCC(N)=O)C(=O)N[C@@H](CCCNC(=N)N)C(=O)N[C@@H](Cc1ccc(O)cc1)C(N)=O)[C@@H](C)O)C(C)C
B6: Compound 198 (peptide)
peptide: Isovaleryl-APAK([Ahx-γGlu-C18 diacid])PEADAEPEEIQRYYVSLRHYYNWLTRQRY-NH2
SMILES: CC[C@H](C)[C@H](NC(=O)[C@H](CCC(=O)O)NC(=O)[C@H](CCC(=O)O)NC(=O)[C@@H]1CCCN1C(=O)[C@H](CCC(=O)O)NC(=O)[C@H](C)NC(=O)[C@H](CC(=O)O)NC(=O)[C@H](C)NC(=O)[C@H](CCC(=O)O)NC(=O)[C@@H]1CCCN1C(=O)[C@H](CCCCNC(=O)CCCCCNC(=O)CC[C@H](NC(=O)CCCCCCCCCCCCCCCCC(=O)O)C(=O)O)NC(=O)[C@H](C)NC(=O)[C@@H]1CCCN1C(=O)[C@H](C)NC(=O)CC(C)C)C(=O)N[C@@H](CCC(N)=O)C(=O)N[C@@H](CCCNC(=N)N)C(=O)N[C@@H](Cc1ccc(O)cc1)C(=O)N[C@@H](Cc1ccc(O)cc1)C(=O)N[C@H](C(=O)N[C@@H](CO)C(=O)N[C@@H](CC(C)C)C(=O)N[C@@H](CCCNC(=N)N)C(=O)N[C@@H](Cc1c[nH]cn1)C(=O)N[C@@H](Cc1ccc(O)cc1)C(=O)N[C@@H](Cc1ccc(O)cc1)C(=O)N[C@@H](CC(N)=O)C(=O)N[C@@H](Cc1c[nH]c2ccccc12)C(=O)N[C@@H](CC(C)C)C(=O)N[C@H](C(=O)N[C@@H](CCCNC(=N)N)C(=O)N[C@@H](CCC(N)=O)C(=O)N[C@@H](CCCNC(=N)N)C(=O)N[C@@H](Cc1ccc(O)cc1)C(N)=O)[C@@H](C)O)C(C)C

Target: T1, human NPY2 receptor
Assay: RLB: displacement of 125I-PYY(1-36) from hNPY2R membranes

| Binder | Ki [nM] |
| --- | --- |
| B1 | 15.3 |
| B2 | 5.46 |
| B3 | 1.95 |
| B4 | 8.32 |
| B5 | 0.74 |
| B6 | 1.38 |
